The source of these data is PMC3794156, “Structure of the ParM filament at 8.5 Å resolution” (Journal of Structural Biology, 2013).

This series concerns the molecule itself. Kind of series: cryo-EM structure; 30 uM ParM in polymerisation buffer (30 mM Tris-HCl, 25 mM KCl, 2 mM MgCl2, 1 mM DTT, pH 7.5) with 5 mM AMPPNP, 5 min at room temperature; filaments spun down and resuspended; helical reconstruction at 8.5 Å.

B1: ParM (actin-like protein of the ParMRC system of Escherichia coli R1 plasmid), wild type (natural protein)
chain: MLVFIDDGSTNIKLQWQESDGTIKQHISPNSFKREWAVSFGDKKVFNYTLNGEQYSFDPISPDAVVTTNIAWQYSDVNVVAVHHALLTSGLPVSEVDIVCTLPLTEYYDRNNQPNTENIERKKANFRKKITLNGGDTFTIKDVKVMPESIPAGYEVLQELDELDSLLIIDLGGTTLDISQVMGKLSGISKIYGDSSLGVSLVTSAVKDALSLARTKGSSYLADDIIIHRKDNNYLKQRINDENKISIVTEAMNEALRKLEQRVLNTLNEFSGYTHVMVIGGGAELICDAVKKHTQIRDERFFKTNNSQYDLVNGMYLIGN
notes: ParM, plasmid segregation protein of actin fold, encoded by Escherichia coli R1 plasmid; Forms double-helical filaments of two protofilaments with AMPPNP or ATP; also called ParM protein; wild type protein; source: E. coli BL21-AI, plasmid pJSC1, in cell lysate for the polymerisation assay
As to B1, the binding result was “binds”.
